Assay results as given in patent publication US20260071182A1 (GAIA BIOMEDICINE, published 2026).

T1: Biotinylated Human 2B4/CD244/SLAMF4 Protein, Fc, Avitag (2B4-H82F0) (human, UniProt Q9BZW8-2 22-221, biotinylated (Avitag))
T1 construct: Bought from ACROBiosystems, catalog 2B4-H82F0; not shown: Fc and Avitag of the purchased protein
T1 sequence (looked up): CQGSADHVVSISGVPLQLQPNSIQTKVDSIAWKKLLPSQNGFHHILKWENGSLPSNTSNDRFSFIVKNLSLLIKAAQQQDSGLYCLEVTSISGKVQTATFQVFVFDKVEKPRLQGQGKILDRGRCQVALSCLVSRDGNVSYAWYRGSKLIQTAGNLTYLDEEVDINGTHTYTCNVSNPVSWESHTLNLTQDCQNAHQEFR

T2: Human NKp30/NCR3/CD337 Protein, Fc Tag (NC3-H5259) (human, UniProt O14931 19-135)
T2 construct: Bought from ACROBiosystems, catalog NC3-H5259; not shown: Fc tag of the purchased protein
T2 sequence (looked up): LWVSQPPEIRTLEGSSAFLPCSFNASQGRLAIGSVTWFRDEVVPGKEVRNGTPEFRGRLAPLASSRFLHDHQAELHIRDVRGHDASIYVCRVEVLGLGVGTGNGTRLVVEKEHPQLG

T3: Biotinylated Human 2B4/CD244/SLAMF4 Protein, Fc, Avitag (2B4-H82F0) (human) (UniProt Q9BZW8)
T3 sequence (biotinylated (Avitag), looked up): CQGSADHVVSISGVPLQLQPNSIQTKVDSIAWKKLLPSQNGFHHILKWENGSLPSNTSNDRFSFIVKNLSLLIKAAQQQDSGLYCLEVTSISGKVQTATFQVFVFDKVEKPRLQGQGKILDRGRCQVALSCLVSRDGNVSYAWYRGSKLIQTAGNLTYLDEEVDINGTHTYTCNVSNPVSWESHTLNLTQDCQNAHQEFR


What was measured:
Assay in all cases: BLI (Octet RED96), target on sensor, monobody in five 2-fold dilutions
[1] = biological target: T1, Biotinylated Human 2B4/CD244/SLAMF4 …
Description: (§1) The binding abilities and specificities were examined by using an Octet® RED96 (ForteBio) with bio-layer interferometry. Measurement was performed with the following program: Dip for 50 seconds, Load for x seconds (until a signal of 1.0 nm (NKp46, 2B4) or 0.8 nm (Nkp30) was reached), Baseline for 60 seconds, Association for 600 seconds, and Dissociation for 600 seconds. At that time, the monobody concentrations were equally set to 40 nM. The acquired data were analyzed with ForteBio Data Analysis 10.0. Only samples for which binding ability and specificity were found were subjected to measurement of dissociation constants under different conditions. The measurement conditions are shown in a table given below. Dip, Baseline, Association, and Dissociation were performed for the same times as in examining binding ability and specificity. The monobodies were serially diluted from the highest concentration by a factor of 2 to prepare five concentrations for use in measurement.
(§2) The binding abilities and specificities of all the clones expressed and purified in Example 3 were examined, and the values of dissociation constants were measured. FIGS. 5 to 7 show the measurement results. In the top graphs in each of FIGS. 5 to 7, upper lines show results of measurement of the binding abilities of the monobodies with binding of a target to the tip of the sensor, and lower lines show results of examination on whether a monobody was bound only to the sensor without binding of a target to the sensor. Mb in the graphs is an abbreviation for monobody concentration. For any of the clones, the monobody was bound to the sensor when a target was fixed on the sensor, and no binding was found when a target was not fixed on the sensor. The bottom graphs in each of FIGS. 5 to 7 show results of measurement of dissociation constants for five concentrations.

[2] = biological target: T2, Human NKp30/NCR3/CD337 Protein, Fc Tag …
Description: as §1, §2

[3] = biological target: T4, Biotinylated Human NKp46/NCR/CD335 Protein, Fc, Avitag (NC1-H82F9) (human, UniProt O76036 22-255, biotinylated (Avitag))
T4 construct: Bought from ACROBiosystems, catalog NC1-H82F9; not shown: Fc and Avitag of the purchased protein
Description: as §1, §2

[4] = biological target: T3, Biotinylated Human 2B4/CD244/SLAMF4 Protein, Fc, Avitag (2B4-H82F0) (human)

T4 sequence (O76036 22-255): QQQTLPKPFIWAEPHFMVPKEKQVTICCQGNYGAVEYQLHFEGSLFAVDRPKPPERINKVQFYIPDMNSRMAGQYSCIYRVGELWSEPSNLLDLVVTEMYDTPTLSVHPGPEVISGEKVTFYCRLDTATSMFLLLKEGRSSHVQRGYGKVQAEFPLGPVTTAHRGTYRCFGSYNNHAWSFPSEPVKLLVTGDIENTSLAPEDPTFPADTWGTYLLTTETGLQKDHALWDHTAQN

| Binder | Kd [2] [nM] | koff [2] [s⁻¹] | kon [2] [M⁻¹ s⁻¹] | Kd [3] [nM] | koff [3] [s⁻¹] | kon [3] [M⁻¹ s⁻¹] | further results |
| --- | --- | --- | --- | --- | --- | --- | --- |
| Mb-2B4-CD-3 (designed binder, Monobody on human fibronectin type III domain scaffold, CD-FG library; also called 2B4 CD-FG No. 3; not shown: Sortase A recognition site, His tag and any linker (X8n8) at the C terminus; MPNR in the library) LEVVEASPTSIQISWDAPAVTVRYYEILYGETGTPPWIHKGWVQYFTVPGSKSTATISGLKPGVDYTITVYAVTVTPYGRKWVGMNGWPISINYRTEIDKPSQ |  |  |  |  |  |  | Kd [1]: 1.5 nM; koff [1]: 0.00035 s⁻¹; kon [1]: 230000 M⁻¹ s⁻¹ |
| Mb-2B4-BC-2 (designed binder, part only; not given: N-terminal start, linker, sortase site, tag, not shown: small tags and cut ends) chain, part: LEVVEASPTSIQISWDAQAYWFEYTWWVRYYRITYGETGGNSPVQEFTVPGSKSTATISGLKPGVDYTITVYAVTLEWVYDDQWTSGPISINYRTEIDKPSQ |  |  |  |  |  |  | Kd [4]: 1 nM; koff [4]: 9.3e-05 s⁻¹; kon [4]: 92000 M⁻¹ s⁻¹ |
| Mb-NKp30-BC-6 (designed binder, Monobody on human fibronectin type III domain scaffold, BC-FG library; also called NKp30 BC-FG No. 6; not shown: N-terminal residues of the expression construct (X7n7; the library has MPNR), linker, Sortase A recognition site and His tag) LEVVEASPTSIQISWDATDRNYDITYGMQVRYYRITYGETGGNSPVQEFTVPGSKSTATISGLKPGVDYTITVYAVTYWWDGYSYSEEAWYYPISINYRTEIDKPSQ | 0.27 | 0.00024 | 900000 |  |  |  |  |
| Mb-NKp30-BC-2 (designed binder, Monobody on human fibronectin type III domain scaffold, BC-FG library; also called NKp30 BC-FG No. 2; not shown: N-terminal residues of the expression construct (X7n7; the library has MPNR), linker, Sortase A recognition site and His tag) LEVVEASPTSIQISWDALWHYYGDQYWVRYYRITYGETGGNSPVQEFTVPGSKSTATISGLKPGVDYTITVYAVTWMYVPEYYFNPWPISINYRTEIDKPSQ | 0.038 | 2.7e-05 | 720000 |  |  |  |  |
| Mb-2B4-CD-1 (designed binder, Monobody on human fibronectin type III domain scaffold, CD-FG library; also called 2B4 CD-FG No. 1; not shown: Sortase A recognition site, His tag and any linker (X8n8) at the C terminus; MPNR in the library) LEVVEASPTSIQISWDAPAVTVRYYGIYYGETGTSPWVYNGYVQEFTVPGSKSTATISGLKPGVDYTITVYAVTDQYKSWNLEEFHPISINYRTEIDKPSQ |  |  |  |  |  |  | Kd [1]: 2.8 nM; koff [1]: 0.0002 s⁻¹; kon [1]: 71000 M⁻¹ s⁻¹ |

More lines, main results first:

| Kd [2] [nM] | koff [2] [s⁻¹] | kon [2] [M⁻¹ s⁻¹] | Kd [3] [nM] | koff [3] [s⁻¹] | kon [3] [M⁻¹ s⁻¹] | Binder | further results |
| --- | --- | --- | --- | --- | --- | --- | --- |
| 0.35 | 0.00029 | 810000 |  |  |  | Mb-NKp30-CD-9 (designed binder, Monobody on human fibronectin type III domain scaffold, CD-FG library; also called NKp30 CD-FG No. 9; not shown: N-terminal residues of the expression construct (X7n7; the library has MPNR), linker, Sortase A recognition site and His tag) LEVVEASPTSIQISWDAPAVTVRYYVITYGETGWSWESYWHGTYVQQFTVPGSKSTATISGLKPGVDYTITVYAVTTFMKDIPSYYPISINYRTEIDKPSQ |  |
|  |  |  | < 0.01 | < 1e-06 | 100000 | Mb-NKp46-BC-3 (designed binder, Monobody on human fibronectin type III domain scaffold, BC-FG library; also called NKp46 BC-FG No. 3; not shown: N-terminal residues of the expression construct (X7n7; the library has MPNR), linker, Sortase A recognition site and His tag) LEVVEASPTSIQISWDATYWDWGFRVRYYRITYGETGGNSPVQEFTVPGSKSTATISGLKPGVDYTITVYAVTWSWARRTHISWFPISINYRTEIDKPSQ |  |
|  |  |  | 0.14 | 7.2e-05 | 530000 | Mb-NKp46-CD-1 (designed binder, Monobody on human fibronectin type III domain scaffold, CD-FG library; also called NKp46 CD-FG No. 1; not shown: N-terminal residues of the expression construct (X7n7; the library has MPNR), linker, Sortase A recognition site and His tag) LEVVEASPTSIQISWDAPAVTVRYYDIYYGETGPGYYMWQRGVINVQAFTVPGSKSTATISGLKPGVDYTITVYAVTGQERAYGHPEHFPISINYRTEIDKPSQ |  |
|  |  |  | 1.2 | 0.00047 | 380000 | Mb-NKp46-BC-2 (designed binder, Monobody on human fibronectin type III domain scaffold, BC-FG library; also called NKp46 BC-FG No. 2; not shown: N-terminal residues of the expression construct (X7n7; the library has MPNR), linker, Sortase A recognition site and His tag) LEVVEASPTSIQISWDAWTWLGYEYYWVRYYRITYGETGGNSPVQEFTVPGSKSTATISGLKPGVDYTITVYAVTWDSKPGAIGIPISINYRTEIDKPSQ |  |
|  |  |  | 0.98 | 7e-05 | 72000 | Mb-NKp46-CD-3 (designed binder, Monobody on human fibronectin type III domain scaffold, CD-FG library; also called NKp46 CD-FG No. 3; not shown: N-terminal residues of the expression construct (X7n7; the library has MPNR), linker, Sortase A recognition site and His tag) LEVVEASPTSIQISWDAPAVTVRYYVISYGETGRYKYHRRINVQGFTVPGSKSTATISGLKPGVDYTITVYAVTGTQWYVFNEAGDVAGYPISINYRTEIDKPSQ |  |
